{"source": "paper PMC3538678", "key": {"[1]": {"biological_target": "recombinant human laminin-511 (α5β1γ1) (human) (UniProt O15230)"}, "[2]": {"biological_target": "recombinant human laminin-521 (α5β2γ1) (human) (UniProt O15230)"}, "[3]": {"biological_target": "recombinant human laminin-511 (α5β1γ1) (human) (UniProt O15230)", "remark": "listed apart in the source"}, "[4]": {"biological_target": "recombinant human laminin-521 (α5β2γ1) (human) (UniProt O15230)", "remark": "listed apart in the source"}}}
{"substance": "recombinant human α3β1 integrin (from UniProt P26006 33-1051; P05556 21-728) (receptor)", "values": [{"measurement": "adhesion of BE melanoma cells to wells coated with rhLM511 (20 µg/ml), OD", "setting": "[1]", "value": 1.65, "unit": "OD"}, {"measurement": "adhesion of KG1C glioma cells to wells coated with rhLM511 (20 µg/ml), OD", "setting": "[1]", "value": 1.48, "unit": "OD"}, {"measurement": "adhesion of MDA-MB-231 breast carcinoma cells to wells coated with rhLM511 (20 µg/ml), OD", "setting": "[1]", "value": 1.82, "unit": "OD"}, {"measurement": "adhesion of BE melanoma cells to wells coated with rhLM521 (20 µg/ml), OD", "setting": "[2]", "value": 1.56, "unit": "OD"}, {"measurement": "adhesion of KG1C glioma cells to wells coated with rhLM521 (20 µg/ml), OD", "setting": "[2]", "value": 1.39, "unit": "OD"}, {"measurement": "adhesion of MDA-MB-231 breast carcinoma cells to wells coated with rhLM521 (20 µg/ml), OD", "setting": "[2]", "value": 1.85, "unit": "OD"}, {"measurement": "migration of carcinoma cells through membranes coated with rhLM511, cells/field", "setting": "[3]", "value": 190, "unit": "cells/field"}, {"measurement": "migration of glioma cells through membranes coated with rhLM511, cells/field", "setting": "[3]", "value": 161, "unit": "cells/field"}, {"measurement": "migration of melanoma cells through membranes coated with rhLM511, cells/field", "setting": "[3]", "value": 88, "unit": "cells/field"}, {"measurement": "migration of carcinoma cells through membranes coated with rhLM521, cells/field", "setting": "[4]", "value": 198, "unit": "cells/field"}, {"measurement": "migration of glioma cells through membranes coated with rhLM521, cells/field", "setting": "[4]", "value": 174, "unit": "cells/field"}, {"measurement": "migration of melanoma cells through membranes coated with rhLM521, cells/field", "setting": "[4]", "value": 203, "unit": "cells/field"}]}
